# The RNAGym collection of RNA variant scans (doi:10.7554/elife.80360)
# B1: Hairpin Ribozyme (parent)
# chain: GUCCUCUUUCACGUGCGCGUGAAAGAGAGAAGUGAACCAGAGAAACACACGUUGUGGUAUAUUACCUGGUA
# Variants of: B1
# Experiment: self-cleavage, relative activity (ratio to wild type); higher = more cleavage; co-transcriptional
row,Variant,self-cleavage
1,G42C U53G,0.244
2,G42A A44C,0.27
3,G42A A44U,0.207
4,G42A A44G,0.201
5,A44U C65U,0.14
6,A44G A71U,0.158
7,G42A A49U,0.11
8,G42A A49C,0.168
9,A41U U52G,1.07
10,G42U U67C,0.131
11,G42C U58G,0.289
12,G42A A45C,0.0962
13,G42U U53G,0.198
14,A44G A64G,0.0828
15,G42U C66G,0.155
16,G42U C66U,0.232
17,A45G U53C,0.4
18,A45G U53G,0.108
19,A43U A45G,0.119
20,A43U A45C,0.0872
21,A44C U52A,0.0299

row,Variant,self-cleavage
1,A44C U52C,0.213
2,A43C U62G,0.257
3,A44C G56U,0.241
4,A43C U60C,0.196
5,A41U G56C,0.149
6,G42C U67C,0.137
7,A43C A44U,0.171
8,A44U A47U,0.0528
9,A45G A59G,0.174
10,A45G A59U,0.0542
11,A43U U67G,0.0666
12,A43U U67A,0.0806
13,A44G A59C,0.179
14,A44G A59U,0.155
15,A44C A45C,0
16,A44U C66G,0.183
17,A44G G57U,0.022
18,A44G G57C,0.148
19,A41U A43C,0.231
20,A41U A43G,0.0919
21,A44U U55A,0.282

row,Variant,self-cleavage
1,A41U A47C,0.955
2,A44C A47C,0.121
3,A44U,0.141
4,A44C,0.148
5,A44G,0.146
6,A41U G42A,0.321
7,A43C A64C,0.0846
8,A43C A64G,0.185
9,G42C G56U,0.117
10,A43U U55C,0.0805
11,A44C U58G,0.128
12,A44C U58C,0.141
13,A45G U55C,0.124
14,A45G U55G,0
15,A41U A44U,0.161
16,A45G A47C,0.228
17,A45G A47U,0.113
18,A41U A59U,0.241
19,A45C C66A,0.187
20,A45C C66U,0
21,A45C C66G,0.319

row,Variant,self-cleavage
1,A45C G54C,0.137
2,A44U U62C,0.0868
3,A44U U62G,0.0672
4,G42A U70A,0.0455
5,A41U G54A,1.03
6,A44U U58C,0.177
7,A44U U58A,0.0794
8,A43U A61U,0.174
9,A43U A59C,0.12
10,A43C A61G,0.147
11,A44U C48G,0.12
12,A45G C46G,0.181
13,A44G G54U,0.16
14,A45G G69C,0.171
15,A45G G69U,0.141
16,A45G G69A,0.117
17,G42U A61G,0.167
18,A45C U70G,0.133
19,A41U U60C,1.24
20,G42A G68A,0.14
21,G42A G68C,0.15
